Data taken from PMC2731736, “cGMP-dependent protein kinase Iα associates with the antidepressant-sensitive serotonin transporter and dictates rapid modulation of serotonin uptake” (Molecular Brain, 2009).

Assays:
[1] = molecular target: T1, Recombinant protein kinase Cα (PKCα, human) (human, UniProt P17252 1-672); assay: kinase inhibition assay (Ki from enzyme kinetics); purified recombinant kinases with multiple concentrations of DT-2; saturating peptide substrate …; PKG isoforms activated with 1 μM cGMP; PKC activated with 50 μg/μL phospholipids and 100 ng/mL 12-O-tetradecanoylphorbol-13-acetate; details: both partners purified
T1 construct: protein kinase C alpha, human, recombinant; source: bought: Calbiochem

[2] = molecular target: T2, cGMP-dependent protein kinase II (PKGII), recombinant (UniProt Q13237 1-762); assay: as above; details: both partners purified
T2 construct: cGMP-dependent protein kinase II; also called cGK2; source: insect cell cultures, Bacmid baculovirus expression system, purified to apparent homogeneity
T2 sequence (looked up): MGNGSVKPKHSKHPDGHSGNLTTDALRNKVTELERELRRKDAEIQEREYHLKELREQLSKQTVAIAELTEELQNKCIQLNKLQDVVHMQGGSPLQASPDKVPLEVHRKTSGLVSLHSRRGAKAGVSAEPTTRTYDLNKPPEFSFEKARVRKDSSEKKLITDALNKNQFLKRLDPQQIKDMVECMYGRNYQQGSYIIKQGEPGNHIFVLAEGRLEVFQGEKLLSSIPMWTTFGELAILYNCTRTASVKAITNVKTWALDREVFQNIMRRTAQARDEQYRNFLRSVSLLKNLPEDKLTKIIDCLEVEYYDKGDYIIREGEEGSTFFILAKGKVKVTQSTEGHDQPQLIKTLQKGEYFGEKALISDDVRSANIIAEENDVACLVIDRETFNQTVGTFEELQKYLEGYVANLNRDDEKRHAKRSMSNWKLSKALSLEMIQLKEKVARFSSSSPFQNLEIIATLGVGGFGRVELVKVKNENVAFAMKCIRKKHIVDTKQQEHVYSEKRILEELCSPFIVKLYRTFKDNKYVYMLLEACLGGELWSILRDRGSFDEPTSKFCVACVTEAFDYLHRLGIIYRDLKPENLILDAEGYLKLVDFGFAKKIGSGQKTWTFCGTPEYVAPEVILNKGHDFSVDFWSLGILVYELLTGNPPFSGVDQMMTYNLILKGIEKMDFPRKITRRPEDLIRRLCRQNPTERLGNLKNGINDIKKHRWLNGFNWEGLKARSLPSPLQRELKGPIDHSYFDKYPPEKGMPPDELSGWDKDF

With YGRKKRRQRRRPPLRKKKKKH (also called peptide DT-2) [DT-2] the Ki [1] was 0.0266 µM and the Ki [2] was 9.1 µM.
